Results on one substance are retold here after patent US20180360749A1, “METHODS AND COMPOSITIONS FOR DELIVERY OF MEDICAMENTS TO THE LUNGS” (Paka Pulmonary Pharmaceuticals, priority 2007, published 2018).

The target in test [1] is T1, HNE (Homo sapiens, UniProt P08246).
T1 sequence (P08246 30-267): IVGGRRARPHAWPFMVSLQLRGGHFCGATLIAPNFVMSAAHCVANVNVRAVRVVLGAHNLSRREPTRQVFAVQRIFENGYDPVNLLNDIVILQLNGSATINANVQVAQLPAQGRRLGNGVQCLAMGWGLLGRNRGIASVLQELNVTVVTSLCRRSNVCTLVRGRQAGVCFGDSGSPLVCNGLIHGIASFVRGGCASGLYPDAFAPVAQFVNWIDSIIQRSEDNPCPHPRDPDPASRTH
Nature of the test: Bronchoalveolar lavage of the lungs following HNE exposure (lung blood cell level). It is filed as in vivo. The settings on record: mice. As for the experimental part: A total of 14 animals were used in this study. Anesthetized mice received 0.1 ml of solution delivered by a blunt tip catheter to the opening of the trachea and the animals allowed to aspirate the solution into their lungs. All animals were exposed to the treatment for 2 hours and re-anesthetized. Bronchoalveolar lavage of the lungs was performed as described below. […] Target 2 (a potent HNE inhibitor developed by Zeneca in the early 1990s) when given with the HNE, reduced the average blood level in the lungs by 34% to 0.035 grams. Target C (the Zeneca molecule covalently attached to the N-terminus of the first 25 residues of the human surfactant B peptide) when given with the HNE reduced the average blood level in the lungs by 87% to 0.007 grams.
A set of animals was used to determine the optimal concentration of HNE for the study. […] The amount of HNE was reduced to 40 micrograms to maintain a maximal detrimental but survivable effect. The animals exposed to 40 micrograms of HNE were able to survive long enough to perform the complete study. All animals remaining in the complete study were exposed to 40 micrograms of HNE.
Target 2 (the Zeneca molecule) was given in a 70-fold molar excess relative to HNE. In the kinetic studies, Target 2 has 2 nM affinity. […] Accordingly, the Target C was given to the animals in a 100 fold molar excess relative to HNE in these studies.
Bronchio-Alveolar lavage (BAL) is performed by 1) anesthetizing the animals; 2) performing a tracheotomy on the animals and cutting open the chest and spreading the ribs to enable full lung expansion; 3) pressurizing lml of PBS buffer solution into the lungs through the tracheotomy catheter; 4) sucking the solution out of the lungs; 5) centrifuging the recovered solution to separate the red blood cell fraction from the liquid fraction; and 6) weighing the red blood cell fraction.

In test [2] the target is T1, HNE. The experiment in a line: Kinetic studies of affinity for HNE. The class given is biochemical.
Where [3] appears, read: given with 40 micrograms HNE via trachea, 2 hours exposure, weight of BAL red blood cell fraction, Target 2 70-fold, Target C 100 fold molar excess relative to HNE.

In the case of “Target C: the Zeneca molecule covalently attached to the N-terminus of the first 25 residues of the human surfactant B peptide (FPIPLPYCWLCRALIKRIQAMIPKG)”, in the test with HNE [1] (setting [3]), the “Lung Blood Cell Level Measurements, Mouse group 1” value amounted to 0 g; the “Lung Blood Cell Level Measurements, Mouse group 2” value came out at 0.007 g; the “Lung Blood Cell Level Measurements, Mouse group 3” value turned out to be 0.014 g. The “Lung Blood Cell Level Measurements, Group mean” value with HNE [1] (given with 40 micrograms HNE, 2 hours exposure, mean of the mouse groups) turned out to be 0.007 g. The “average blood level in the lungs (lung blood cell level by weight)” value in the test with HNE [1] (given with the HNE, 2 hours exposure) is 0.007 grams. Besides, the “reduction of the average blood level in the lungs” value with HNE [1] (given with the HNE, relative to animals given HNE (0.053 grams)) stood at 87%. Also, in the test with HNE [2], the Ki was roughly 200 nM and the “loss of potency as compared to Target 2” value is “approximately two orders of magnitude”.
